From the nanobody polyreactivity screen of Harvey et al. (2022)

Test: yeast display, Sf9 membrane polyspecificity reagent, FACS + sequencing; frameworks hold sequencing errors
In short: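 In a synthetic yeast display library (Saccharomyces cerevisiae BJ5465), nanobody expression was induced with galactose for 36–48 hours. FACS gates were set low and high (top ~1%) using anti-HA fluorescence for expression and streptavidin fluorescence for binding of the Sf9 membrane reagent. Each polyreactivity label is drawn from the gate of origin.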

Row | Sequence | polyreactivity (PSR sort gate)
1 | QVQLVESVGGLVQAGGSLRISCAASGRITQIYAMGWSRQAPRKEWELVARITSTDSTYYADSVKGRFTISRDNAKKTVYLKMNSLTPEDTAVYYCAASWWSPYDYWGQGTQVTVSS | low polyreactivity
2 | QVQLVESGGGLVQAGGSLRLSCAASGRIIARYTMGWYRQAPGKERELVAAITRGSSTYYADSVKGRFTISRDNALNTVFLHMNSQKPEDTAVNYCAKVYVVKSRYVYWGKGTQVTVSS | low polyreactivity
3 | QVQLVESGGGLVQAGGSLRLSCAASGRIFGRYAMGRYRRAPGKESEFVAAIDGGGGRTYADSVKGRFTISRDNAKNTVYLQMNSLKPEDTAVYYCNAYVYSIHWGDLYWSEYDYWGQGTQVTVSS | high polyreactivity
4 | QVQLVESGGGLVQAGGSLSLSCAAYGSTFDPNDMGWYRQAPGKERELVAVIDSGDGTTYYADSVKGRFTISRDNAKNTVYLQMNRLKPEDTAVYYCAVDESTSYYDDHEDYWGQGTQVTVSS | low polyreactivity
5 | QVQLVESGGGLVQAGGSLRLRCAASGSTFPPNAMGWYRQAPGKERELVAVISNGGSNTRYADSVKGRFTISRDHAKNTVYLQMNSLKPEDTAVYYCAADYEYSGYGYWGQGTQVTVSS | high polyreactivity
6 | QVQLVESGGGLVQAGGSLRLSCAASGFIFRRYAMGWYRQAPGKERELVAIITSGVRTYYADSVKGRFTISRDNAKNTVYLQMNSLKPEDTAVYYCASRVKDYPEYDYWGQGTQVTVSS | low polyreactivity
7 | QVQLVESGGGLVQAGGSLRLSCAASGIIFIFYDMGWYRQAPGKERELVATITSGTNTYADSVKGRFTISRDNAKNTVFLQMNSLKPEDTGVYYCAAGFSPASQLDYWGQGSQVTVSS | low polyreactivity
8 | QVQLVESGGGLVQAGGSLRLSCAASGITFYKNAMGWYRPAPGKERELVAAISGRGGTTYYADSVKGRFTLSRDNAKNTVYVQMNSLKPEDTAVYYCNTVRWAWPYLKFDYWGQGTQVTVSS | high polyreactivity
9 | QVQLVESGGGLVQAGGSLRLSCAASGFTFWRYAKGWYRHAPGKERELVAAISSGGSTNYADSVKGRFTISRDNAKNTVYIQMNSLKPEDTAVYYCNARYYHKRSTRVIFPYDYWGQGTQVTVSS | high polyreactivity
10 | QVQLVESGGGLVQAGGSLRLSCAASGRTFRYYAMGWYRQAPGKERELVASITGSGGSTTYADSVKGRFTISRDNAKNTVYLQMNSLKPEDTAVYYCAVRYPYYSYRAKLGYWGQGTQVTVSS | high polyreactivity
11 | QVQLVESGGGLVQAGGSLRLSCAATGRTFYVYAMGWYRQAPGKERELVADITWSGGSTYADSVKGRFTISRDNAKNTVYLQMNSLKPEDTAVYYCAAEWQTWYGVEYDYWGQGTQVTVSS | high polyreactivity
12 | QDQLVESGGGLVQAGGSLRLSCAASGFIFYYYAMGWYRPAPGKERELVAAISGSGGSTYYADSVKGRFTISRDNAKNTVYLQMNSLKPEDTAVYYCNARRPGYYVYYFAYDYWGQGTQVTVSS | high polyreactivity
13 | QVQLVESGGGLVQAGGSLRLSCAASGSTFYLYAMGWYRQAPGKERELVAAITFRGSRTYYADSVKGRFTISRDNAKNTVYLQMNRLKPEDTAVYYCAKEKYRTREHDSWGQGTQVTVSS | low polyreactivity
14 | QDQLVESGGGLVQAGGSLRLSCAASGFTFACYTMGWYRQAPGKERELVAGIDWSGGSTYYADSVKGRFTISRDNEKNTVYLEMNSLKPEDTAVYYCNAAVLYYVYPGYDYWGQGTQVTVSS | high polyreactivity
15 | QVQLVESGGGLVQAGGSLRLICAASGIIFVPNAMGWYSQAPGKERELVAAIDRGGGTTYADSVKGRFTISRDNAKNTVYLQMNSLKPEDTAVYYCAAAWGVGPDQGHDYWGQGTQVTVSS | low polyreactivity
16 | QVQLVESGGGLVQAGGSLRLSCAASGSTFRFYAMGWYRQAPGKERELVAAISSRAGSTYYADSVKGRFTISRDNAKNTVYLQMNSLKPEDTAVYYCNARTYSYRGYNYWGQGTQVTVSS | high polyreactivity
17 | QVQLVESGGGLVQAGGSLRLSCAASRFIFSFYVMGWYRQAPAKETELVAAISTSGASTYYADSVKGRFTITRDNAKKTVYLQMNSLKPEDTAVYYCNVGYRYGGYNYWGQGTQVTVSW | high polyreactivity
18 | QVQLVESGGGLVQAGGSLRLSCAASGSILYVYAMGWYRQAPGKERELVAAISFSGGSTYYADSVKGRFTISRDNAKNTVYLQMNSLKPEDTAVYYCAADVSYDIYVEYDYWGQGTQVTVSS | low polyreactivity
19 | QVQLVESGGGLVQAGGSLRLSCAASGRIFQLYTMGWYRQAPGKERELVAAITSGTSTSYADSVKGRFTISRDNAKNTVYLQMNSLKPEDTAVYYCNKGSVSYSSVFVPYESDYWGQGTQVTVSS | low polyreactivity
20 | QVQLVESGGGLVQAGGSLRVSCAASGITSPYNAMGWYRQAPGKERELVAGITSGDSTDYADSVKGRFTISRDNAKNTVYLQMNSLKPEDTAVYYCAADSIRYCDYDYWGHGTQVTVSS | low polyreactivity
21 | QVQLVESGGGLVQAGGSLRLSCAPSGSIFHYYAMGWYRQAPGKERELVAAISWSGGRTNYADSVKGRFTISSDNAKNTVYLQMNSLKPEDTAVYYCAAGNSFSDRGHRVYFQYYYWGQGTQVTVSS | high polyreactivity
